Non-standard residues stand in square brackets, D forms with d. No end group written: not given here. *: point of attachment. Biotin = O=C1N[C@H]2[C@H](CS[C@H]2CCCCC(=O)*)N1; pY = N[C@@H](Cc1ccc(OP(=O)(O)O)cc1)C(=O)O
Molecular target: thrombin (Homo sapiens, UniProt P00734)
Assay: SPR

- Kd: 229 nM
Binder: Biotin-DEGDTDL[pY]D[pY][pY]PEEDTEG [GpIbα269-286ppp]
